Series [1] deals with Pichia pastoris cells with co-expressed Arabidopsis nitrate reductase and a yeast nitrate transporter. To be noted: 150 mM chlorate on solid medium; methanol-inducible AOX promoter; cited from earlier work.
The test system of series [2] is Arabidopsis Nrt1.1 transformants. Briefly: Functional pre-screening chlorate assay (growth on minimal plate). It counts as cell-based, Pichia pastoris. To be noted: very small concentrations of chlorate, relative to Pichia angusta Nrt transformants. The procedure:
5 μL of overnight YPD transformant cultures were spotted onto a minimal plate containing yeast nitrogen base, 10 mM proline, 2% glucose and 3-20 mM chlorate. These were incubated overnight at 30° C. The amount of growth was observed the next morning. […] This assay was repeated with various Nrt genes.

In series [3] the test system is Pichia angusta Nrt transformants. The series is described as above. It counts as cell-based, Pichia pastoris. The note with it: 0.5 mM chlorate, overnight at 30° C. Here is the method: […] These were incubated overnight at 30° C. The amount of growth was observed the next morning. […] This assay was repeated with various Nrt genes.
The next series concerns functional transformants. Briefly: Chlorate assay, functional transformants with pGAP promoter. It counts as cell-based, Pichia pastoris. The note with it: as low as. The procedure: A particularly effective way to screen for functional transformants is the use of a chlorate assay. It is known that Pichia pastoris cells with co-expressed Arabidopsis nitrate reductase and a yeast nitrate transporter driven under methanol-inducible AOX promoter are sensitive to 150 mM chlorate on solid medium. See, Unkles, et al., (2004) J. Biol. Chem., 279:28182-86. However, when a constitutive promoter rather than the commonly-used pAOX is used, the sensitivity of the functional transformants to chlorate increases substantially, and therefore the chlorate assay is much more sensitive. For example, when the preferred pGAP promoter is used, functional transformants are sensitive to chlorate concentrations much below 150 mM, such as by concentrations of as low as about 0.5 mM. Of course, the sensitivity level will vary depending on the rate of uptake of the particular Nrt integrated into the Pichia pastoris.

Series [4] concerns P. pastoris GS115-YNR1 transformants. Briefly: Nitrate transporter (NT) activity of barley two-component HATS transformants, nitrite assay. It counts as cell-based, Pichia pastoris. To be noted: 1 mM NaNO3, 2 hours at 30° C., pH 6.5; compared to negative controls GS115 wt and GS115-YNR1. From the text:
To test if P. pastoris was capable to identify a plant two-component HATS system, the following constructs containing HvNrt2.1 (SEQ ID NO: 5) or HvNar2.3 (SEQ ID NO: 6) were made and transformed into GS115-YNR1 line at AOX locus individually: pPIC3.5-pGAP-HvNrt2.1 or pPIC3.5-pGAP-HvNar2.3. To obtain transformants carrying HvNar2.3 and HvNrt2.1, GS115 wt was transformed with pPIC3.5-pGAPHvNar2.3-pGAPYNR at His 4 locus, then re-transformed with pPIC3.5-pGAP-HvNrt2.1 at AOX locus after the line was confirmed carrying both YNR1 and HvNar2.3 genes by PCR. The transformants were cultured in rich media (YPD) at 30° C. for overnight. Yeast cells were collected and washed with water twice then re-suspended in […], pH 6.5 and 1% glucose containing 1 mM NaNO3. After 2 hours incubation at 30° C., the supernatant was collected for nitrite assay with 1% Sulfanilamide, 0.01% N-(1-Naphthyl)ethylene-diamine dihydrochloride and 15% (v/v) H3PO4.

For series [5], the system named is Pichia pastoris cell expressing the indicated nitrate transporter gene. Briefly: In vivo nitrate uptake assay (nitrite in medium by Griess reagent, Michaelis-Menten fit). It counts as cell-based. The note with it: transporter co-expressed with YNR1 in Pichia pastoris; 20 mM MOPS pH 6.5, 1% glucose; nitrate 0-30 mM. The text has this:
Pichia pastoris is a non-nitrate assimilating yeast. Because of this, any nitrate taken in via the Nrt is converted to nitrite by the co-expressed Nr and diffused or transported to the medium. This property permits the transformed Pichia pastoris to be used as an in vivo nitrate uptake assay, as the amount of nitrate taken into the cells is directly proportional to the nitrite later present in the growth medium. Nitrite may be quantitatively detected using Griess reagent or any other method known in the art. By way of the assay, various kinetic parameters of an Nrt may be quantified, such as Km and Vmax.
The assay is generally performed by incubating transformed Pichia pastoris on a medium containing nitrate for a set amount of time and assessing the amount of nitrite diffused to the medium after that set amount of time. The medium is preferably buffered. Most preferably, the medium has about 20 mM MOPS, pH 6.5, buffer and about 1% glucose, as this buffered medium allows the detection of linear uptake for up to several hours. The table below provides kinetic data for several Nrt proteins ascertained using the in vivo uptake assay herein described:
Pichia pastoris transformants were prepared in accordance with example 1 above and grown in YPD medium at 30° C. for 1 day. Cell pellets were washed twice with water then resuspended with a proper amount of uptake medium including nitrate. 24 different nitrate concentrations were tested, ranging from 0-30 mM. Optimal results were obtained with a buffered medium such as 20 mM MOPS, pH 6.5, 1% glucose, and the varying concentrations of nitrate. The aliquots were transferred into a 96-well plate; supernatants were mixed with Greiss reagent and monitored at 545 nm using a plate reader produced by Molecular Devices.
The raw data were fitted into proper kinetic equations, such as the Michaelis-Menton equation, using a program such as KaleidaGraph, available from Synergy Software, Reading Pa., USA. This in vivo uptake assay permits the kinetics of various nitrate transporters to be ascertained, such as those listed in Table 1 above.

For the molecule `[O-][Cl+2]([O-])O` [chlorate], in series [1], the sensitivity to chlorate result was “sensitive”. Moreover, the “sensitivity of transformants to chlorate” value in series [2] is “less sensitive”. Besides, the “growth of transformants in chlorate” value in series [3] is given as “inhibited”. In addition, the “chlorate concentration to which functional transformants are sensitive” value in the series with functional transformants was “about 0.5 mM”.

As to “HvNrt2.1: barley carrier-type protein Nrt2 of two-component HATS, SEQ ID NO: 5”, the NT activity entry in series [4] is on record as “did not have NT activity”.

B1: HvNar2.3: barley associate protein Nar2 of two-component HATS, SEQ ID NO: 6 (protein)
chain: MARQGMVTALLLLVLAAGCCASAGAVAYLSKLPVTLDVTASPTPGQVLHAGEDVITVTWALNASQPAGKDADYKNVKVSLCYAPVSQKEREWRKTHDDLKKDKTCQFKITQQAYPGAGKVEYRVALDIPTATYYVRAYALDASGTQVAYGQTAPTAAFNVVSITGVTTSIKVAAGVFSAFSVASLAFFFFIEKRKKNN
modifications: Hordeum vulgare
B1: the NT activity result in series [4] is recorded as “did not have NT activity”.

B2: AtNrt1.4: higher plant nitrate transporter protein, GenBank accession AC003105 (protein, UniProt Q9SZY4 1-577, looked up)
Protein NRT1/ PTR FAMILY 6.2: MESKGSWTVADAVDYKGRPADKSKTGGWITAALILGIEVVERLSTMGIAVNLVTYLMETMHLPSSTSANIVTDFMGTSFLLCLLGGFLADSFLGRFKTIGIFSTIQALGTGALAVATKLPELRPPTCHHGEACIPATAFQMTILYVSLYLIALGTGGLKSSISGFGSDQFDDKDPKEKAHMAFFFNRFFFFISMGTLLAVTVLVYMQDEVGRSWAYGICTVSMAIAIVIFLCGTKRYRYKKSQGSPVVQIFQVIAAAFRKRKMELPQSIVYLYEDNPEGIRIEHTDQFHLLDKAAIVAEGDFEQTLDGVAIPNPWKLSSVTKVEEVKMMVRLLPIWATTIIFWTTYAQMITFSVEQASTMRRNIGSFKIPAGSLTVFFVAAILITLAVYDRAIMPFWKKWKGKPGFSSLQRIAIGLVLSTAGMAAAALVEQKRLSVAKSSSQKTLPISVFLLVPQFFLVGAGEAFIYTGQLDFFITQSPKGMKTMSTGLFLTTLSLGFFVSSFLVSIVKRVTSTSTDVGWLADNINHGRLDYFYWLLVILSGINFVVYIICALWFKPTKGKDSVEKENGKGFSVEDC
Usually Km stands for the concentration of substrate that gives half-maximal velocity. Take B2: in series [5], the Km amounted to 610 µM and the “Vmax, μM of nitrate taken up in one minute by 50 μl Pichia pastoris cell” value (“Vmax, μM of nitrate taken up” for short) is on record as 4.0 μM/m/50 μl cell.

B3: AtNrt1.3: higher plant nitrate transporter protein, GenBank accession AB019232 (protein, UniProt Q9LVE0 1-590, looked up)
Protein NRT1/ PTR FAMILY 6.4: MVHVSSSHGAKDGSEEAYDYRGNPPDKSKTGGWLGAGLILGSELSERICVMGISMNLVTYLVGDLHISSAKSATIVTNFMGTLNLLGLLGGFLADAKLGRYKMVAISASVTALGVLLLTVATTISSMRPPICDDFRRLHHQCIEANGHQLALLYVALYTIALGGGGIKSNVSGFGSDQFDTSDPKEEKQMIFFFNRFYFSISVGSLFAVIALVYVQDNVGRGWGYGISAATMVVAAIVLLCGTKRYRFKKPKGSPFTTIWRVGFLAWKKRKESYPAHPSLLNGYDNTTVPHTEMLKCLDKAAISKNESSPSSKDFEEKDPWIVSTVTQVEEVKLVMKLVPIWATNILFWTIYSQMTTFTVEQATFMDRKLGSFTVPAGSYSAFLILTILLFTSLNERVFVPLTRRLTKKPQGITSLQRIGVGLVFSMAAMAVAAVIENARREAAVNNDKKISAFWLVPQYFLVGAGEAFAYVGQLEFFIREAPERMKSMSTGLFLSTISMGFFVSSLLVSLVDRVTDKSWLRSNLNKARLNYFYWLLVVLGALNFLIFIVFAMKHQYKADVITVVVTDDDSVEKEVTKKESSEFELKDIP
Turning to B3, in series [5], the Michaelis-Menten constant (Km) is 7400 µM and the “Vmax, μM of nitrate taken up” value is reported as 14.4 μM/m/50 μl cell.

B4: AtNrt1.1: higher plant nitrate transporter protein, GenBank accession L10357 (protein, UniProt Q05085 1-590, looked up)
Protein NRT1/ PTR FAMILY 6.3: MSLPETKSDDILLDAWDFQGRPADRSKTGGWASAAMILCIEAVERLTTLGIGVNLVTYLTGTMHLGNATAANTVTNFLGTSFMLCLLGGFIADTFLGRYLTIAIFAAIQATGVSILTLSTIIPGLRPPRCNPTTSSHCEQASGIQLTVLYLALYLTALGTGGVKASVSGFGSDQFDETEPKERSKMTYFFNRFFFCINVGSLLAVTVLVYVQDDVGRKWGYGICAFAIVLALSVFLAGTNRYRFKKLIGSPMTQVAAVIVAAWRNRKLELPADPSYLYDVDDIIAAEGSMKGKQKLPHTEQFRSLDKAAIRDQEAGVTSNVFNKWTLSTLTDVEEVKQIVRMLPIWATCILFWTVHAQLTTLSVAQSETLDRSIGSFEIPPASMAVFYVGGLLLTTAVYDRVAIRLCKKLFNYPHGLRPLQRIGLGLFFGSMAMAVAALVELKRLRTAHAHGPTVKTLPLGFYLLIPQYLIVGIGEALIYTGQLDFFLRECPKGMKGMSTGLLLSTLALGFFFSSVLVTIVEKFTGKAHPWIADDLNKGRLYNFYWLVAVLVALNFLIFLVFSKWYVYKEKRLAEVGIELDDEPSIPMGH
Turning to B4, in series [5], the Km was 360 µM and the “Vmax, μM of nitrate taken up” value was found to be 8.0 μM/m/50 μl cell.

(Values after patent US20120100556A1, “Functional Expression of Higher Plant Nitrate Transporters in Pichia Pastoris” (priority 2007, published 2012).)
